This data set concerns the molecule itself. The data set can be described thus: oligomer pelleting by centrifugation with UV absorbance of the supernatant.

B1: RAGE VC1 (tandem V and C1 domains of the receptor for advanced glycation end products) (domain or fragment, human)
chain: AQNITARIGEPLVLKCKGAPKKPPQRLEWKLNTGRTEAWKVLSPQGGGPWDSVARVLPNGSLFLPAVGIQDEGIFRCQAMNRNGKETKSNYRVRVYQIPGKPEIVDSASELTAGVPNKVGTCVSEGSYPAGTLSWHLDGKPLVPNEKGVSVKEQTRRHPETGLFTLQSELMVTPARGGDPRPTFSCSFSPGLPRHRALRTAPIQPRVWEPVPLEEVQL
B1 returned a Kd of 3.8 ± 1.3 µM.

As usually defined, the Kd is the concentration at which binding is half-saturated. A high value points to lower affinity.

The values above are taken from PMC4250094 (Structure (London, England : 1993), 2010).
